Experimental data from paper PMC5397175.

What was measured:
[1] = target: T1, SLM2 (T-STAR) STAR domain (UniProt O75525); test: fluorescence polarization; settings: FP buffer, salt, pH and temperature not given in the material; SD from three independent experiments
T1 sequence: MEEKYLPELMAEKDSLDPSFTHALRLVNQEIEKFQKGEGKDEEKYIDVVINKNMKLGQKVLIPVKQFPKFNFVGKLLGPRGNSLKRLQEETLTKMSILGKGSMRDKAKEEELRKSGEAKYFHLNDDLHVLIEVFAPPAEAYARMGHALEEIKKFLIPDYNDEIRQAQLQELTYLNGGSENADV

Sam68 STAR domain = Sam68 STAR domain (UniProt Q07666); test: fluorescence polarization; settings: FP buffer, salt, pH and temperature not given in the material; SD from three independent experiments
Chain of Sam68 STAR domain (Q07666 97-283): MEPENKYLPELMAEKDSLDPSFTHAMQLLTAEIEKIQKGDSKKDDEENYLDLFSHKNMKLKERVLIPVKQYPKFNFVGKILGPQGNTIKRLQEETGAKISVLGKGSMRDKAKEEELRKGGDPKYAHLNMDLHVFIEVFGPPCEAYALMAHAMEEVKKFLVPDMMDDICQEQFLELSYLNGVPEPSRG

Sequence	Kd [1] [µM]	Kd (Sam68 STAR domain) [µM]
CCCACAGUUUAAAAUUUGAUAAAAUUU [Stxbp5l 1]	24	15.5
CCCUUACAUUUAAAAGAUGAUUUAAAAA [Stxbp5l 2]	18.2	13.8
